Measurements taken from the Human Domainome abundance scans (Beltran et al. 2025).
± gives the uncertainty stated by the source.

B1: TOX high mobility group box family member 3, residues 256 to 323; numbered along this chain, O15405 (parent)
chain: QKPVSAYALFFRDTQAAIKGQNPNATFGEVSKIVASMWDSLGEEQKQVYKRKTEAAKKEYLKALAAYR

Variants of: B1
Assay: abundance fitness (aPCA) (normalised: wild type 0, dead -1); higher = more abundant; growth selection in yeast, the domain comes from the species named
Details: Homo sapiens

Question: Which abundance fitness does the source give for QKPVDAYALFFRDTQAAIKGQNPNATFGEVSKIVASMWDSLGEEQKQVYKRKTEAAKKEYLKALAAYR here?
Answer: 0.101 ± 0.074

Question: Which abundance fitness does the source give for QKPVSCYALFFRDTQAAIKGQNPNATFGEVSKIVASMWDSLGEEQKQVYKRKTEAAKKEYLKALAAYR here?
Answer: -0.372 ± 0.17

Question: Which abundance fitness does the source give for QKPVSAYALFFRDTQAAIKGQNPNATFGEGSKIVASMWDSLGEEQKQVYKRKTEAAKKEYLKALAAYR here?
Answer: -1.04 ± 0.17

Question: With QKPVSAYALFFRDTQAAIKGQNPNATFGEPSKIVASMWDSLGEEQKQVYKRKTEAAKKEYLKALAAYR as the variant, how does the abundance fitness read?
Answer: -0.776 ± 0.25

Question: For QKPVSAYALFFRDTQAAIKHQNPNATFGEVSKIVASMWDSLGEEQKQVYKRKTEAAKKEYLKALAAYR, which abundance fitness is on record?
Answer: 0.013 ± 0.13

Question: Which abundance fitness does the source give for QKPVSAYALFFRDTQAAIKFQNPNATFGEVSKIVASMWDSLGEEQKQVYKRKTEAAKKEYLKALAAYR here?
Answer: -0.073 ± 0.11

Question: Which abundance fitness does the source give for QKPVSAYALFFRDTQAAIKGQNPNATFGEVSKIVASMWDSLGEEQKQVYKRKTEAAKKEYLLALAAYR here?
Answer: -0.344 ± 0.049

Question: Which abundance fitness does the source give for QKPVSAYALFFRDTQAAIKGQNPNATFGEVSKIVASMWDSLGEEQKQVYKRKTEAAKKEYLKALAAYI here?
Answer: -0.65 ± 0.22

Question: With QKPVSAYALFFRDTQAAIKGQVPNATFGEVSKIVASMWDSLGEEQKQVYKRKTEAAKKEYLKALAAYR as the variant, how does the abundance fitness read?
Answer: -0.149 ± 0.083

Question: With QKPVSAYALFFRDTQAAIKGQNPNATFGEVSKIVASMWDSLGEEQKQVYKRKTEAAWKEYLKALAAYR as the variant, how does the abundance fitness read?
Answer: -0.381 ± 0.11

Question: For QKPVSAYALFFRDTQAAIKGQNPNATFGEVSKIVASMWDSLGEEQKQVYKRKTEAAPKEYLKALAAYR, which abundance fitness is on record?
Answer: -0.165 ± 0.065

Question: Which abundance fitness does the source give for QKPVSAYALFFRDTQAAIKGQNPNATFGEVSKIVASMWDSLGEEQKQVYKRKTEAAKEEYLKALAAYR here?
Answer: 0.044 ± 0.097

Question: For QKPVSAYALFFRDTQAAIKGQNPNATFGEVSKIVASMWDSLGEEQIQVYKRKTEAAKKEYLKALAAYR, which abundance fitness is on record?
Answer: -0.398 ± 0.1

Question: With QKPVSAYALFFRDTQAAIKGQNPNATFGEVSKIVASMKDSLGEEQKQVYKRKTEAAKKEYLKALAAYR as the variant, how does the abundance fitness read?
Answer: -0.799 ± 0.16

Question: Which abundance fitness does the source give for QKPVSAYALFFRDTQAAIKGQNPNATFGEVSKIVASMRDSLGEEQKQVYKRKTEAAKKEYLKALAAYR here?
Answer: -0.918 ± 0.12

Question: For CKPVSAYALFFRDTQAAIKGQNPNATFGEVSKIVASMWDSLGEEQKQVYKRKTEAAKKEYLKALAAYR, which abundance fitness is on record?
Answer: -0.362 ± 0.14

Question: With NKPVSAYALFFRDTQAAIKGQNPNATFGEVSKIVASMWDSLGEEQKQVYKRKTEAAKKEYLKALAAYR as the variant, how does the abundance fitness read?
Answer: 0.271 ± 0.15

Question: With QKPVSAYALFFRDTQAAIKGQNPNATNGEVSKIVASMWDSLGEEQKQVYKRKTEAAKKEYLKALAAYR as the variant, how does the abundance fitness read?
Answer: 0.295 ± 0.085

Question: For QKPVSAYALLFRDTQAAIKGQNPNATFGEVSKIVASMWDSLGEEQKQVYKRKTEAAKKEYLKALAAYR, which abundance fitness is on record?
Answer: -0.744 ± 0.1

Question: For QKPVSAYALFFRDTQAAIKGQNPNATFGEVSKIVASSWDSLGEEQKQVYKRKTEAAKKEYLKALAAYR, which abundance fitness is on record?
Answer: -0.265 ± 0.056

Question: For QKPVSAYALFFRDTQAAIKGQNPNATFGEVSKIVASKWDSLGEEQKQVYKRKTEAAKKEYLKALAAYR, which abundance fitness is on record?
Answer: 0.037 ± 0.065

Question: With QKPVSAYALFFRDTWAAIKGQNPNATFGEVSKIVASMWDSLGEEQKQVYKRKTEAAKKEYLKALAAYR as the variant, how does the abundance fitness read?
Answer: -0.194 ± 0.075

Question: With QKPVSAYALFFRDTQAAIKGQNPNATFGEVSKIVASMWDSLGEECKQVYKRKTEAAKKEYLKALAAYR as the variant, how does the abundance fitness read?
Answer: -0.486 ± 0.087

Question: With QKPVSAYALFFRDTQAAIKGQNPNATFGEVSKIVASMWDSLGEEHKQVYKRKTEAAKKEYLKALAAYR as the variant, how does the abundance fitness read?
Answer: 0.098 ± 0.14

Question: With QKPVSAYALFFRDTQAAIKGQNPNATFGEVSKIVASMWDSLGEERKQVYKRKTEAAKKEYLKALAAYR as the variant, how does the abundance fitness read?
Answer: -0.059 ± 0.045

Question: Which abundance fitness does the source give for QKPVSAYALFFRDTQAAIKGQNPNQTFGEVSKIVASMWDSLGEEQKQVYKRKTEAAKKEYLKALAAYR here?
Answer: -0.328 ± 0.13

Question: With QKPVSAYALFFRDTQAAIKGQNPNNTFGEVSKIVASMWDSLGEEQKQVYKRKTEAAKKEYLKALAAYR as the variant, how does the abundance fitness read?
Answer: -0.677 ± 0.089

Question: With QKPVSAYALFFRDTQAAIKGQNPNATFGEVSKIVASMWDSLGEEQKGVYKRKTEAAKKEYLKALAAYR as the variant, how does the abundance fitness read?
Answer: -0.103 ± 0.05

Question: With QKPVSAYALFFRDTQAAIKGQNPNATFGEVSKIVASMWDSLGEEQKQVYKRKTENAKKEYLKALAAYR as the variant, how does the abundance fitness read?
Answer: 0.001 ± 0.063

Question: With QKPVSAYALFFRDTQAAIKGQNPNATFGEVSKIVAWMWDSLGEEQKQVYKRKTEAAKKEYLKALAAYR as the variant, how does the abundance fitness read?
Answer: -0.671 ± 0.13

Question: Which abundance fitness does the source give for QKPVSAYALFFRDTQAAIKGQNWNATFGEVSKIVASMWDSLGEEQKQVYKRKTEAAKKEYLKALAAYR here?
Answer: -0.94 ± 0.14

Question: For QKPVSAYALFFRDTQAAIKGQNPNATFGEVSKIVASMWDSLGEEQKQVYKRKTEAAKKEYLKALASYR, which abundance fitness is on record?
Answer: 0.061 ± 0.052

Question: With QKPVSAYALFFRDTQAAIKGQNPNATFGEVSKIVASMWDSLGEEQKQVYKRKTEAAKKEYLKALANYR as the variant, how does the abundance fitness read?
Answer: 0.135 ± 0.075

Question: With QKPVSAYALFFRDTQAAIKGQNPNATFGEVSKIVASMWDSLGEEQKQVYKRKTEAAKKEYLKALAPYR as the variant, how does the abundance fitness read?
Answer: 0.182 ± 0.05

Question: Which abundance fitness does the source give for QKPVSAYALFFRDTQAALKGQNPNATFGEVSKIVASMWDSLGEEQKQVYKRKTEAAKKEYLKALAAYR here?
Answer: -0.396 ± 0.082

Question: For QKPVSAYGLFFRDTQAAIKGQNPNATFGEVSKIVASMWDSLGEEQKQVYKRKTEAAKKEYLKALAAYR, which abundance fitness is on record?
Answer: -0.179 ± 0.17

Question: With QKPVSAYPLFFRDTQAAIKGQNPNATFGEVSKIVASMWDSLGEEQKQVYKRKTEAAKKEYLKALAAYR as the variant, how does the abundance fitness read?
Answer: -0.464 ± 0.12

Question: Which abundance fitness does the source give for QKPVSAYALFFRVTQAAIKGQNPNATFGEVSKIVASMWDSLGEEQKQVYKRKTEAAKKEYLKALAAYR here?
Answer: -0.344 ± 0.074

Question: With QKPVSAYALFFRDTQAAIKGQNPNAQFGEVSKIVASMWDSLGEEQKQVYKRKTEAAKKEYLKALAAYR as the variant, how does the abundance fitness read?
Answer: -0.217 ± 0.071
